Data published in patent US20040261142A1.

Biological target: mutant pp60c-Src tyrosine kinase (SRC 531 mutant, truncated c-Src) (human) (UniProt P12931)
Experiment: cell-based or functional assay

peptide Ala-Glu-Glu-Glu-Ile-Tyr-Gly-Glu-Phe-Glu-Ala-Lys-Lys-Lys-Lys
K50% (competitive inhibition of enolase phosphorylation): 5 µM | Km (kinase reaction, 32P incorporation into peptide, phosphocellulose paper): 2 µM | Vmax (kinase reaction, 32P incorporation into peptide, phosphocellulose paper): 0.9 µM/mg/min
